# Article PMC7810988, “Inositol pyrophosphates promote the interaction of SPX domains with the coiled-coil motif of PHR transcription factors to regulate plant phosphate homeostasis” (Nature Communications, 2019)
# Target: the molecule itself
# Assay: SEC-RALS; size-exclusion chromatography with right-angle light scattering; 50 µL of 2–10 mg/mL protein, 20 mM HEPES pH 7.5, 150 mM NaCl, Superdex 200 increase 10/300 GL, 25 °C
protein,measurement,value
"wild-type AtPHR1^280–360 (pMH-HT construct) (domain or fragment, AtPHR1, Arabidopsis thaliana, residues 280-360 (coiled-coil domain); also called AtPHR1 CC; AtPHR^280–360; not shown: 6xHis, N-terminal, cleaved) not shown",stoichiometry N,4
"full-length OsPHR2 (OsPHR2^1-426, wild type) (natural protein, OsPHR2, rice MYB-CC transcription factor, residues 1-426, called full-length; also called wild-type OsPHR2; not shown: 8xHis, N-terminal, cleaved; Strep, N-terminal, cleaved; GB1, N-terminal, cleaved) not shown",stoichiometry N,4
"wild-type AtPHR1^222–358 (domain or fragment, AtPHR1, Arabidopsis thaliana, residues 222-358 (MYB and CC domains only); also called AtPHR1 MYB-CC; untagged AtPHR1^222–358; not shown: 6xHis, N-terminal, cleaved) not shown",stoichiometry N,2
"AtPHR1^280–360 KHR/A (domain or fragment, AtPHR1, Arabidopsis thaliana, residues 280-360, KHR motif mutated to alanine; not shown: 6xHis, N-terminal, cleaved) not shown",binding result,binds
